Data reported in article PMC12197871.
Substitutions are numbered along the chain they refer to. Numbers in names are those of the source.

B1: WT GsLDH (Geobacillus stearothermophilus) (protein)
chain: MKNNGGARVVVIGAGFVGASYVFALMNQGIADEIVLIDANESKAIGDAMDFNHGKVFAPKPVDIWHGDYDDCRDADLVVICAGANQKPGETRLDLVDKNIAIFRSIVESVMASGFQGLFLVATNPVDILTYATWKFSGLPHERVIGSGTILDTARFRFLLGEYFSVAPQNVHAYIIGEHGDTELPVWSQAYIGVMPIRKLVESKGEEAQKDLERIFVNVRDAAYQIIEKKGATYYGIAMGLARVTRAILHNENAILTVSAYLDGLYGERDVYIGVPAVINRNGIREVIEIELNDDEKNRFHHSAATLKSVLARAFTR
B2: Triple mutant (Geobacillus stearothermophilus; N293S/Q189L/R104C) (protein)
chain: B1 chain with R104C, Q189L, N293S
B3: Gln189Leu (Geobacillus stearothermophilus; Q189L) (protein)
chain: B1 chain with Q189L

What was measured:
[1] = substrate: CC(=O)C(=O)O; assay: purified protein, by the assay type; settings: pH 6.5
[2] = substrate: CC(=O)C(=O)O; assay: purified protein, by the assay type; assay type: biochemical; settings: pH 6.5

Protein | K0.5 [1] [mM] | K0.5 [2] [mM] | kcat [2] [s⁻¹]
B1 | 2.8 ± 0.4 | – | –
B2 | – | 0.41 ± 0.09 | 57 ± 8
B3 | – | 2.3 ± 0.2 | 73 ± 12
